The record followed here is PMC7188244.

Assay [1] concerns the target HA-tagged SQSTM1-NUP214^FGmut fusion protein (human) (UniProt P35658). Briefly: co-IP; nuclear lysates of stably transduced MEFs; anti-HA antibody overnight at 4°C, Protein G Dynabeads; washes with 150 and 175 mM NaCl buffer; immunoblot with anti-Crm1 and anti-HA, Crm1 signal/HA signal quantified on LI-COR Odyssey; cells untreated or treated with LMB (10 nM, 2 hours).
Assay [2] deals with HA-tagged SQSTM1-NUP214 fusion protein (human) (UniProt P35658). The description is as above.

Consider “Crm1 (chromosome region maintenance 1) (from UniProt Q6P5F9 1-1071) (natural protein)”, for which the percent reduction of Crm1 binding against SQSTM1-NUP214 in assay [1] is above 50%. In assay [2], the percent reduction of Crm1 binding by LMB (10 nM, 2 hours) came to 58%. The substance “Crm1 (chromosome region maintenance 1) (from UniProt Q6P5F9 1-1071)” displayed a percent reduction of Crm1 binding by LMB (10 nM, 2 hours) in assay [1] of 52%.
